By EC50 is commonly meant the concentration at which the effect is half-maximal.

We go through two substances from patent US20130267584.

For series [1], the target named is full-length TFPI (fl-TFPI, TFPI alpha) (Homo sapiens) (UniProt P10646). The series is described as follows: SPR. Conditions: biotinylated, nucleotide sequence identical to BAX 499; ka 6.7e7 1/Ms, kd 6.6e-4 1/s; 37 C, HBS pH 7.4, 0.1% P20, 3 mM CaCl2; aptamer immobilized.
For series [2] the target is unchanged. In words: inhibition. Conditions: PEG.

full-length TFPI (fl-TFPI, TFPI alpha) (Homo sapiens), sequence (P10646 29-304): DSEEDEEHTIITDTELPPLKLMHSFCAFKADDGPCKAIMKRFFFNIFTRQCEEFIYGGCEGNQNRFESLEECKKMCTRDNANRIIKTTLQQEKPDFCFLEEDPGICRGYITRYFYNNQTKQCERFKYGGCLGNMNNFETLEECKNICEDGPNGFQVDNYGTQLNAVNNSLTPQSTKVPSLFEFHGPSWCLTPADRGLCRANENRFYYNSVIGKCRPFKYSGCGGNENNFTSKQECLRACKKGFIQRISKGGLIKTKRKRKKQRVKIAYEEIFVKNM

With ARC28635, in series [1], the Kd was found to be 0.015 nM.

In the case of BAX 499, the Kd in series [2] (apparent Kd from relief of TFPI inhibition of TF/FVIIa, 12 nM TFPI, FXa independent, TFPI source not stated in this example) amounted to 1.2 nM. The activity in series [2] (aptamer giving about 50% recovery of extrinsic FXase activity with 3 nM TFPI, 75-80% recovery at saturation) turned out to be 50 nM. In series [2] (extrinsic tenase assay at 0.25 nM TFPI, maximal reversal 58% at 1000 nM, EC50 rises with TFPI level), the EC50 is 12 nM.
